Target: T1, GFP-fused SYP132 (SYNTAXIN OF PLANTS132) expressed under its native promoter (Arabidopsis thaliana, UniProt Q8VZU2 1-304)
T1 construct: SYNTAXIN OF PLANTS132 (SYP132), Arabidopsis thaliana, At5g08080; also called GFP-SYP132; SYP132p:GFP-SYP132; source: Arabidopsis SYP132p:GFP-SYP132 transgenic line, in leaf lysate
T1 sequence (looked up): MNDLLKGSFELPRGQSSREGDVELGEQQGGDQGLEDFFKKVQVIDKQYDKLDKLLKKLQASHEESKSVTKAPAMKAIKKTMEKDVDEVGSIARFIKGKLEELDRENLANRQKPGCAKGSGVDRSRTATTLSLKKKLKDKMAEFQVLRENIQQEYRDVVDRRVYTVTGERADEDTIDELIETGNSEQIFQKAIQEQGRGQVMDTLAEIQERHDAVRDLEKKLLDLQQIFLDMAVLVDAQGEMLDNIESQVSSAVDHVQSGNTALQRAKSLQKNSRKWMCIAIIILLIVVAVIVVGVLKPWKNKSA
Experiment: co-IP; GFP-Trap agarose beads saturated with GFP-tagged bait from Arabidopsis leaf lysates; plants treated 24 h without or with Pst DC3000 in 10 mM MgCl2; binding buffer PBS pH 7.45, 0.01% Triton X-100, 0.05 mM DTT, 0.01% CHAPS, 1 h at 4°C; washes with additional 150 mM NaCl; bound proteins detected by immunoblot
Conditions: partners not purified

fold change of Co-IP bound/bait after Pst DC3000 infection relative to buffer control: ~2.5 fold
B1: PM H+-ATPase 1 (AHA1), native (natural protein, UniProt P20649 1-949, looked up)
chain: MSGLEDIKNETVDLEKIPIEEVFQQLKCTREGLTTQEGEDRIVIFGPNKLEEKKESKILKFLGFMWNPLSWVMEAAALMAIALANGDNRPPDWQDFVGIICLLVINSTISFIEENNAGNAAAALMAGLAPKTKVLRDGKWSEQEAAILVPGDIVSIKLGDIIPADARLLEGDPLKVDQSALTGESLPVTKHPGQEVFSGSTCKQGEIEAVVIATGVHTFFGKAAHLVDSTNQVGHFQKVLTSIGNFCICSIAIGIAIEIVVMYPIQHRKYRDGIDNLLVLLIGGIPIAMPTVLSVTMAIGSHRLSQQGAITKRMTAIEEMAGMDVLCSDKTGTLTLNKLSVDKNLVEVFCKGVEKDQVLLFAAMASRVENQDAIDAAMVGMLADPKEARAGIREVHFLPFNPVDKRTALTYIDSDGNWHRVSKGAPEQILDLANARPDLRKKVLSCIDKYAERGLRSLAVARQVVPEKTKESPGGPWEFVGLLPLFDPPRHDSAETIRRALNLGVNVKMITGDQLAIGKETGRRLGMGTNMYPSAALLGTDKDSNIASIPVEELIEKADGFAGVFPEHKYEIVKKLQERKHIVGMTGDGVNDAPALKKADIGIAVADATDAARGASDIVLTEPGLSVIISAVLTSRAIFQRMKNYTIYAVSITIRIVFGFMLIALIWEFDFSAFMVLIIAILNDGTIMTISKDRVKPSPTPDSWKLKEIFATGIVLGGYQAIMSVIFFWAAHKTDFFSDKFGVRSIRDNNDELMGAVYLQVSIISQALIFVTRSRSWSFVERPGALLMIAFVIAQLVATLIAVYADWTFAKVKGIGWGWAGVIWIYSIVTYFPQDILKFAIRYILSGKAWASLFDNRTAFTTKKDYGIGEREAQWAQAQRTLHGLQPKEDVNIFPEKGSYRELSEIAEQAKRRAEIARLRELHTLKGHVESVAKLKGLDIDTAGHHYTV
notes: Plasma membrane H+-ATPase 1 (AHA1), Arabidopsis thaliana, At2g18960; detected with anti-AHA1 antibodies at ~100 kDa; also called AHA1 isoform; plasma membrane H+-ATPase AHA1; source: endogenous, Arabidopsis leaf lysate

Source: PMC9237740, “SNARE SYP132 mediates divergent traffic of plasma membrane H^+-ATPase AHA1 and antimicrobial PR1 during bacterial pathogenesis” (Plant Physiology, 2022)
